According to patent US6887705B1, “Tyrosine phosphorylated cleavage furrow-associated proteins (PSTPIPs)” (Genentech, Inc., priority 1997, dated 2005):

T1: PTP HSCF with G442 mutated to alanine, HA tagged (UniProt Q61152 1-453)
T1 construct: range 1-453; also called HSCF G442
T1 sequence (looked up): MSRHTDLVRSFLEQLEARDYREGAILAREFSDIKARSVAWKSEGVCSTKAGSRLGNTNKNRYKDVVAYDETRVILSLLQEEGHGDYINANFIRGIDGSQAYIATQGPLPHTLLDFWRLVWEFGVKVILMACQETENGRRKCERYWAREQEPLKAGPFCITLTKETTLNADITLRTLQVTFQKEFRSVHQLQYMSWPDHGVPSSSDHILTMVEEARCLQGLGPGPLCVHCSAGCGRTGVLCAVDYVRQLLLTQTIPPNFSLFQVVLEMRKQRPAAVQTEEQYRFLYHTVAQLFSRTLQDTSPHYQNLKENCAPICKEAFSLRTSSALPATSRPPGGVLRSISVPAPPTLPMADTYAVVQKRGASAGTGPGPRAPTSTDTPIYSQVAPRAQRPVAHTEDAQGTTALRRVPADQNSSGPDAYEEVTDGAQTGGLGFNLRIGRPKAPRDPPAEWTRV

T2: PTP HSCF with R436 mutated to alanine, HA tagged (UniProt Q61152 1-453)
T2 construct: range 1-453; also called HSCF R436
T2 sequence (looked up): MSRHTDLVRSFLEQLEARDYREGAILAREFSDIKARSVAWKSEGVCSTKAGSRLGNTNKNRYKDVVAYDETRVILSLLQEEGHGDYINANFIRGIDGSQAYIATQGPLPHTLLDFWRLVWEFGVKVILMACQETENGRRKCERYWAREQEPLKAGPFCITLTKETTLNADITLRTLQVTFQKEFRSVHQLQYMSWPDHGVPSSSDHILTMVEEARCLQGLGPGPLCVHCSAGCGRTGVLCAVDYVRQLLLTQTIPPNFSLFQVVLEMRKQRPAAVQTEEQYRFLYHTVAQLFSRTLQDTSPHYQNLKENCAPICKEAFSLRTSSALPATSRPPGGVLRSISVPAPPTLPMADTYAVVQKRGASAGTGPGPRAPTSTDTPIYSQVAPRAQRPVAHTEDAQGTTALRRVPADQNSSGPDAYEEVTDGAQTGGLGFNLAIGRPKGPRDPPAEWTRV


Legend:
3T3 cells = assay: Overexpression of PSTPIP in transfected 3T3 cells, confocal microscopy; assay type: cell-based, murine; settings: overexpression under cytomegalovirus promoter
Protocol: Rabbit polyclonal antibodies were produced against a GST-PSTPIP fusion protein. The complete PSTPIP-GST fusion protein was purified on GSH-sepharose and injected intramuscularly at 2 sites with 200 μg fusion protein and subcutaneously at multiple sites with a total of 300 μg PSTPIP-GST fusion protein in Complete Freunds Adjuvant. Rabbits were boosted every 3 weeks with 100 μg fusion protein in Incomplete Freunds. 15 ml of rabbit sera was reacted with 0.5 mg PSTPIP-GST-GSH-Sepharose for 3 hours at 4° C. with gentle rotation. The resin was collected by centrifugation and washed with 10 column volumes of PBS. Immunoglobulin was eluted from the affinity matrix with 100 mM acetic acid, 500 mM NaCl, neutralized with NaOH, and then dialyzed overnight with PBS. NIH 3T3 cells were seeded at 100,000 cells per chamber slide and allowed to adhere overnight. The cells were transfected using Lipofectamine™ (2 ug pRK.PIP.FLAG.C/12 ul Lipofectamine in 0.8 ml OPTI-MEM) for 5 hours. The DNA/Lipofectamine™ solution was removed and fresh serum containing medium added. […] Cells were stained with 0.4 μg/ml rabbit anti-PIP or 0.4 μg/ml rabbit IgG and detected with Cy3-corjugated goat anti-rabbit. […]

[1] = biological target: T1, PTP HSCF with G442 mutated to alanine, …; assay: in vitro translated PTP HSCF mutant precipitated with 1 or 10 µg/ml GST PST PIP
Protocol: (§1) Multiple bands precipitated with the GST PST PIP fusion protein are apparently C-terminal proteolyzed products of the PTP. Also shown are GST PST PIP precipitations (10 μg/ml) performed on a double mutant of PTP HSCF (R+W) with both residues $R444$ and $W450$ mutated to alanine (bottom panel FIG. 14 A/2). B. COS cells were co-transfected with a 10:1 ratio of plasmids encoding hemagglutinin (HA) tagged PTP HSCF with the illustrated alanine substitutions or a mutant of PTP HSCF deleted for the C-terminal 24 amino acids (PTP $HSCFD24$) and wild type PST PIP with a C-terminal FLAG epitope tag, respectively. Transfected cell lysates were immunoprecipitated with anti-HA monoclonal antibodies and the precipitates were blotted with anti-PST PIP polyclonal antibody to detect the relative amounts of PST PIP complexed with either wild type or different mutant forms of PTP HSCF. Lysates were also immunoprecipitated with anti-HA antibody and blotted with the same antibody to insure equal expression of PTP HSCF. Equal expression of PSTPIP was determined by immunoprecipitating lysates with anti-FLAG monoclonal antibody and blotting with anti-PST PIP polyclonal antibody.
(§2) In vitro binding analyses between various PTP HSCF and PST PIP constructs were performed as previously described (Spencer et al, (1997), supra). Briefly, plasmids were transcribed and translated in vitro using the TnT Rabbit Reticulocyte Lysate System (Promega). Samples were diluted in 50 mM HEPES, pH 7.2, 1% triton X-100, 10% glycerol, 100 mM NaCl, and 2 µg/ml each of leupeptin, pepstatin, aprotinin and PMSF (lysis buffer). Samples were than reacted with GST fusion proteins at various concentrations, and the bound proteins were centrifuged using glutathione-sepharose beads and analyzed on SDS polyacrylamide gels. C-terminally-derived peptide inhibition studies were performed by incubating the GST fusion protein binding reactions in the presence of 10 µg/ml of the indicated peptides. Peptides were produced by FMOC-protected amino acids as previously described (Spencer et al, (1997), supra). In vivo interactions between various forms of PTP HSCF and PST PIP were also performed as previously described (Spencer et al, (1997), supra).

[2] = biological target: T2, PTP HSCF with R436 mutated to alanine, …; assay: as above
Protocol: as §1, §2

binding result [1]	binding result [2]	Molecule	cell morphology on overexpression (3T3 cells)
–	–	PSTPIP: murine PST Phosphatase Interacting Protein, 415 residues (SEQ ID NO:1) (protein, Mus Musculus) MMAQLQFRDAFWCRDFTAHTGYEVLLQRLLDGRKMCKDVEELLRQRAQAEERYGKELVQIARKAGGQTEMNSLRTSFDSLKQQTENVGSAHIQLALALREELRSLEEFRERQKEQRKKYEAIMDRVQKSKLSLYKKTMESKKAYDQKCRDADDAEQAFERVSANGHQKQVEKSQNKAKQCKESATEAERVYRQNIEQLERARTEWEQEHRTTCEAFQLQEFDRLTILRNALWVHCNQLSMQCVKDDELYEEVRLTLEGCDVEGDINGFIQSKSTGREPPAPVPYQNYYDREVTPLIGSPSIQPSCGVIKRFSGLLHGSPKTTPSAPAASTETLTPTPERNELVYASIEVQATQGNLNSSAQDYRALYDYTAQNSDELDISAGDILAVILEGEDGWWTVERNGQRGFVPGSYLEKL	induced a remarkable morphological change in a high percentage of cells
binds	binds	GST-PSTPIP (GST fusion of full-length PSTPIP, amino acids 2-415) (other, Made in DH5-alpha bacteria from pGEX4T-2; also called GST-full-length PSTPIP; GST PTP PIP; not shown: glutathione S-transferase encoded by pGEX-4T-2 (Pharmacia)) MAQLQFRDAFWCRDFTAHTGYEVLLQRLLDGRKMCKDVEELLRQRAQAEERYGKELVQIARKAGGQTEMNSLRTSFDSLKQQTENVGSAHIQLALALREELRSLEEFRERQKEQRKKYEAIMDRVQKSKLSLYKKTMESKKAYDQKCRDADDAEQAFERVSANGHQKQVEKSQNKAKQCKESATEAERVYRQNIEQLERARTEWEQEHRTTCEAFQLQEFDRLTILRNALWVHCNQLSMQCVKDDELYEEVRLTLEGCDVEGDINGFIQSKSTGREPPAPVPYQNYYDREVTPLIGSPSIQPSCGVIKRFSGLLHGSPKTTPSAPAASTETLTPTPERNELVYASIEVQATQGNLNSSAQDYRALYDYTAQNSDELDISAGDILAVILEGEDGWWTVERNGQRGFVPGSYLEKL	–
